Measurements taken from patent US20140221623A1 (Ablynx, published 2014).
Values joined by “and” are separate entries in the source; they are usually repeats but may differ in a detail not shown here. Equal entries are not always repeated. Where two headings read alike, the source gives them in different places.

T1: IL6-R on U266 cells (human, UniProt P08887 20-468)
T1 sequence (looked up): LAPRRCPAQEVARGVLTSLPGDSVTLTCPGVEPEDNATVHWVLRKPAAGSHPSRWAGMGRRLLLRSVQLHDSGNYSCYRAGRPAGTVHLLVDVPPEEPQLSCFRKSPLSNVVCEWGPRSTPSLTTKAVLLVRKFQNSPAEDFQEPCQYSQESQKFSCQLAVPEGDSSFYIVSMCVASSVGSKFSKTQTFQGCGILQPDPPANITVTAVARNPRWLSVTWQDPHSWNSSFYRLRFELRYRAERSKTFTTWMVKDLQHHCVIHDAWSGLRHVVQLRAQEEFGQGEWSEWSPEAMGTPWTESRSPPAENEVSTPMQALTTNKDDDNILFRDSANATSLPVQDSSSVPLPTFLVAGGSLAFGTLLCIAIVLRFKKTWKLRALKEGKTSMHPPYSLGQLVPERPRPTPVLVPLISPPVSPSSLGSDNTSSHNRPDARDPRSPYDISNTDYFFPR

T2: Human soluble IL6-R (human, UniProt P08887 20-358)
T2 construct: Bought soluble receptor; biotinylated in some Alphascreen assays; also called sIL6-R; hIL-6R
T2 sequence (looked up): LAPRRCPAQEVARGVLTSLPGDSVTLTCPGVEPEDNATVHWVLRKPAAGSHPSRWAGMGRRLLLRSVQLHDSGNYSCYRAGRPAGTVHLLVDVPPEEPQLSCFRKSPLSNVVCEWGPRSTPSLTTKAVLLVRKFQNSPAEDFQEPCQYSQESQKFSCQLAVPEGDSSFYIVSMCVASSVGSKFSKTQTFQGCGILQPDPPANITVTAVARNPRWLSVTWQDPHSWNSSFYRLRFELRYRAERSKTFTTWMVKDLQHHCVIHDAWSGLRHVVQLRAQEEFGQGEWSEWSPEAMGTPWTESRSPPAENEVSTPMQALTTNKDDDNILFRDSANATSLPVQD


How the values were obtained:
IL6-R on U266 cells [1] = molecular target: T1, IL6-R on U266 cells; assay: cell-based or functional assay
IL6-R on U266 cells [2] = molecular target: T1, IL6-R on U266 cells; assay: cell-based or functional assay; remark: listed apart in the source
IL6-R on U266 cells [3] = molecular target: T1, IL6-R on U266 cells; assay: cell-based or functional assay; remark: listed apart in the source
IL6-R on U266 cells [4] = molecular target: T1, IL6-R on U266 cells; assay: cell-based or functional assay; remark: listed apart in the source
Human soluble IL6-R [5] = molecular target: T2, Human soluble IL6-R; assay: SPR (Biacore), off-rate
Human soluble IL6-R [6] = molecular target: T2, Human soluble IL6-R; assay: SPR (Biacore 3000), IL6-R on CM5 chip
Human soluble IL6-R [7] = molecular target: T2, Human soluble IL6-R; assay: Alphascreen, 100 nM Nanobody; competitor Reference-Fab on beads
Human soluble IL6-R [8] = molecular target: T2, Human soluble IL6-R; assay: SPR (Biacore 3000), IL6-R on CM5 chip; remark: listed apart in the source
Human soluble IL6-R [9] = molecular target: T2, Human soluble IL6-R; assay: SPR (Biacore 3000), IL6-R on CM5 chip; remark: listed apart in the source
Human soluble IL6-R [10] = molecular target: T2, Human soluble IL6-R; assay: SPR (Biacore 3000), IL6-R on CM5 chip; row without label, read as kd

| IC50, XG-1 proliferation (IL6-R on U266 cells [1]) | IC50, XG-1 proliferation (IL6-R on U266 cells [2]) | IC50, TF-1 proliferation (IL6-R on U266 cells [3]) | IC50, XG-1 proliferation with 1 mg/mL human serum albumin (IL6-R on U266 cells [4]) | koff (Human soluble IL6-R [5]) | Kd (Human soluble IL6-R [6]) | koff (Human soluble IL6-R [6]) | kon (Human soluble IL6-R [6]) | % binding retained in competition with Reference-Fab (Human soluble IL6-R [7]) | Molecule | also measured |
| --- | --- | --- | --- | --- | --- | --- | --- | --- | --- | --- |
| 0.064 nM |  |  |  |  |  |  |  |  | MAb BR-6 (antibody) | IC50 (+1% HSA), TF-1 proliferation (IL6-R on U266 cells [1]): 0.088; IC50 (w/o HSA), TF-1 proliferation (IL6-R on U266 cells [1]): 0.042 |
| 0.272 nM |  |  |  |  |  |  |  |  | MAb BN-12 (antibody) |  |
|  | 16.2 nM | 28.1 nM | 17.5 nM | 0.0016 s⁻¹ | 3.03 nM | 0.00147 s⁻¹ and 0.0016 s⁻¹ | 484000 M⁻¹ s⁻¹ | 5% | IL6R03 (VHH, also called PMP31A4; PMP 31 A4) VHH: EVQLVESGGGLVQAGGSLRLSCAASGSIFKVNAMGWYRQAPGKQRELVAGIISGGSTNYADSVKGRLTISRDNAKNTVYLQMNSLKPEDTAVYYCSFVTTNSDYDLGRDYWGQGTQVTVSS |  |
|  | 0.089 nM | 0.545 nM | 0.099 nM | 0.00015 s⁻¹ | 0.26 nM | 9.42e-05 s⁻¹ and 0.00015 s⁻¹ | 365000 M⁻¹ s⁻¹ | 50% | IL6R04 (VHH, also called PMP32C9; PMP 32 C9) VHH: EVQLVESGGGLVQAGGSLRLSCAASGFTFDDYDIGWFRQAPGKEREGVSGISSSDGNTYYADSVKGRFTISSDNAKNTVYLQMNSLKPEDTAVYYCAAEPPDSSWYLDGSPEFFKYWGQGTQVTVSS | Kd (Human soluble IL6-R [8]): 0.2 nM; koff (Human soluble IL6-R [8]): 0.000112 s⁻¹; kon (Human soluble IL6-R [8]): 536000 M⁻¹ s⁻¹ |
|  |  |  |  |  |  |  |  |  | IL6R88 (VHH, Humanized variant of IL6R13) VHH: EVQLVESGGGLVQPGGSLRLSCAASGFTFDDYGMSWVRQAPGKGTEWVSAISWNGNNTYYTESMKGRFTISRDNAKNTLYLQMNSLRPEDTAVYYCVKGSTAIVGVPPTYPDEYDYWGQGTLVTVSS | Kd (Human soluble IL6-R [9]): 0.9 nM; koff (Human soluble IL6-R [9]): 0.00031 s⁻¹; kon (Human soluble IL6-R [9]): 230000 M⁻¹ s⁻¹; koff (Human soluble IL6-R [10]): 0.000213 s⁻¹ |
|  | 2.75 nM | 10 nM | 2.98 nM | 0.00139 s⁻¹ | 2.01 nM and 1.17 nM | 0.0013 s⁻¹ and 0.00139 s⁻¹ and 0.00129 s⁻¹ | 641000 M⁻¹ s⁻¹ and 1.11e+06 M⁻¹ s⁻¹ | 62% | IL6R09 (VHH, also called PMP34G9; PMP 34 G9) VHH: EVQLVESGGGLVQAGGSLRLSCAASGRTSSSYDMTWYRQVPGKEREFVAVISWSGGSTYYADSVKGRFTISRDNAKNTVYLQMNSLKPEDTAIYYCNAYTGGGDDYWGQGTQVTVSS |  |
